Assay [1] deals with cell surface binding sites for HMGB1 on RAW 264.7 cells. Put plainly: cell-based or functional assay.
The target of assay [2] is RAGE on RAW 264.7 cells (mouse (murine RAW 264.7 cells)) (UniProt Q62151). Put plainly: cell-based or functional assay.
The target of assay [3] is cell surface binding sites for HMGB1 on RAW 264.7 cells. Put plainly: 125I-HMGB1 cell surface binding to RAW 264.7 cells, 2 hours at 4 C, no competitor.

Sequence of RAGE on RAW 264.7 cells (mouse (murine RAW 264.7 cells)) (Q62151 23-402): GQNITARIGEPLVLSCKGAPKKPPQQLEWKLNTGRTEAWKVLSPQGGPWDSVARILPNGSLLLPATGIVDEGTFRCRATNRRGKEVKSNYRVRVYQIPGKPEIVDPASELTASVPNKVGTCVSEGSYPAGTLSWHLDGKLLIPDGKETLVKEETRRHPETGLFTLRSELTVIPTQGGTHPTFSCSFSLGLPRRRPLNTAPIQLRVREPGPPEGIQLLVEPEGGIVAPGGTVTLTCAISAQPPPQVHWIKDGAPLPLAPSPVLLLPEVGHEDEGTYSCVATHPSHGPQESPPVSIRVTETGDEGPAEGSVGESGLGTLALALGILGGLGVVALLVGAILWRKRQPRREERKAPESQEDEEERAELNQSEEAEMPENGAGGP

Take “HMGB1 A box (Amino terminus + A Box mutant of human HMGB1) (from UniProt A9RA84 1-85)”: the inhibition of HMGB1 (1 µg/ml) induced TNF release from RAW 264.7 cells, apparent EC50 in assay [1] was found to be 7.5 µg/mL. As to “Recombinant full length human HMGB1 (wild type HMGB1) (from UniProt A9RA84 1-215) (ligand)”, the maximum inhibition of HMG-1 signaling (TNF release from RAW 264.7 cells) by anti-RAGE antibody in assay [2] was 40%. For the same substance, the total counts obtained in the absence of unlabeled HMGB1 proteins (CPM/well) in assay [3] is 2.38e+06 CPM/well.
